T1: CD20 on CD20-positive human lymphoma cell lines Raji and ST-486 (human, UniProt P11836 1-297)
T1 construct: whole, on cells
T1 sequence (looked up): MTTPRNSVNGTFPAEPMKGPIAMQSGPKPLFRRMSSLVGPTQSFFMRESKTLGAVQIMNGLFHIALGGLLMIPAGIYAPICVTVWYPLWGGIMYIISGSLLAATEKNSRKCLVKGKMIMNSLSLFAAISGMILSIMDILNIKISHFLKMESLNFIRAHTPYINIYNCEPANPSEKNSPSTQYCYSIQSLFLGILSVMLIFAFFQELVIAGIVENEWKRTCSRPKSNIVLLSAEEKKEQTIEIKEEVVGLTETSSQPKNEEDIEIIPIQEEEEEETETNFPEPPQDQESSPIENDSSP

B1: anti-CD20 IgG1 defucosylated antibody GA101/IgG1 DF (antibody, V domains shown)
VH: QVQLVQSGAEVKKPGSSVKVSCKASGYAFSYSWMNWVRQAPGQGLEWMGRIFPGDGDTDYNGKFKGRVTITADKSTSTAYMELSSLRSEDTAVYYCARNVFDGYWLVYWGQGTLVTVSS
VL: DIVMTQTPLSLPVTPGEPASISCRSSKSLLHSNGITYLYWYLQKPGQSPQLLIYQMSNLVSGVPDRFSGSGSGTDFTLKISRVEAEDVGVYYCAQNLELPYTFGGGTKVEIK
B2: anti-CD20 IgG1 type defucosylated monovalent antibody GA101/mvG1-2 DF (antibody, V domains shown)
VH: QVQLVQSGAEVKKPGSSVKVSCKASGYAFSYSWMNWVRQAPGQGLEWMGRIFPGDGDTDYNGKFKGRVTITADKSTSTAYMELSSLRSEDTAVYYCARNVFDGYWLVYWGQGTLVTVSS
VL: DIVMTQTPLSLPVTPGEPASISCRSSKSLLHSNGITYLYWYLQKPGQSPQLLIYQMSNLVSGVPDRFSGSGSGTDFTLKISRVEAEDVGVYYCAQNLELPYTFGGGTKVEIKR
notes: Same chains as GA101/mvG1-2 F, made in CHO/FUT8KO (no core fucose)
B3: anti-CD20 IgG1 type monovalent antibody GA101/mvG1-2 F (antibody, V domains shown)
VH: QVQLVQSGAEVKKPGSSVKVSCKASGYAFSYSWMNWVRQAPGQGLEWMGRIFPGDGDTDYNGKFKGRVTITADKSTSTAYMELSSLRSEDTAVYYCARNVFDGYWLVYWGQGTLVTVSS
VL: DIVMTQTPLSLPVTPGEPASISCRSSKSLLHSNGITYLYWYLQKPGQSPQLLIYQMSNLVSGVPDRFSGSGSGTDFTLKISRVEAEDVGVYYCAQNLELPYTFGGGTKVEIKR
notes: Heterodimer of VH-CH and VL-CL-Fc

Each binder was assayed against T1, CD20 on CD20-positive human lymphoma … (assay: flow cytometry competition on Raji cells, competitor GA101_Alx).
Source text: CD20-positive human lymphoma cell line Raji (JCRB9012) and HER2-positive human breast cancer cell line SK-BR-3 (ATCC: HTB-30) were used to perform flow cytometry.
Further, hIgG1_Alx was used as a negative control. After washing with FACS buffer, a flow cytometer Cytomics FC 500 MPL (Beckman Coulter) was used for measurement.

Binding result, binds:
B1, B2, B3

Source: patent publication US20170362323A1 (Kyowa Kirin, published 2017)
